The target in test [1] is T1, 新型冠状病毒囊膜蛋白受体结合域 WH-RBD-TFc (SARS-CoV-2 S蛋白 RBD 319-541 - 凝血酶位点 - 人源IgG1 Fc) (SARS-CoV-2; human, UniProt P0DTC2 319-541). As to the kind of experiment: ELISA, WH-RBD-TFc coated at 4 μg/mL, Fab titrated, detected with HRP anti-FLAG antibody. For orientation: ELISA stands for enzyme-linked immunosorbent assay.
For test [2], the target named is T1, 新型冠状病毒囊膜蛋白受体结合域 WH-RBD-TFc (SARS-CoV-2 …). As to the kind of experiment: BLI, biotinylated WH-RBD-TFc immobilised (40 μg/ml), IgG titrated in solution (both partners bivalent). Background: In BLI a coated tip is dipped into the sample, and binding shifts an interference pattern.
Test [3] has the same target. As to the kind of experiment: ELISA, WH-RBD-TFc coated at 4 μg/mL, IgG titrated, detected with HRP goat anti-human IgG (Fab).

B1: Fab-F1-A3 (Fab, V domains shown)
VH: QVQLVESGGGLVQPGGSLRLSCAASGFTVSSNYMSWVRQAPGKGLEWVSVIYSGGSTYYADSVKGRFTISRDNSKNTLYLQMNSLRAEDTAVYYCARGDGSDDYYYGMDVWGQGTTVTVSS
VL: QSVVTQPPSVSGAQGQRVFISCTGNGANIGMGYDVHWYQQLPGRAPKLLIFGNTNRPSGVPDRFSASRSGTSASLAITGLQTADEADYYCQSYDGNLRASVFGGGTKLTVLG
notes: also called 抗体Fab F1-A3
Take B1: in test [1], the EC50 (usually the concentration that produces a half-maximal response) worked out at 4000 pM.

B2: IgG-F1-A3 (antibody, V domains shown)
VH: QVQLVESGGGLVQPGGSLRLSCAASGFTVSSNYMSWVRQAPGKGLEWVSVIYSGGSTYYADSVKGRFTISRDNSKNTLYLQMNSLRAEDTAVYYCARGDGSDDYYYGMDVWGQGTTVTVSS
VL: QSVVTQPPSVSGAQGQRVFISCTGNGANIGMGYDVHWYQQLPGRAPKLLIFGNTNRPSGVPDRFSASRSGTSASLAITGLQTADEADYYCQSYDGNLRASVFGGGTKLTVLG
B2: the Kd in test [2] was 13 pM. This molecule also registered an EC50 in test [3] of about 780 pM.

For the origin of these results see patent CN113388029A (WUHAN INST VIROLOGY CAS, dated 2021).
